Positions count from the first letter of the chain named.

Experiment [1] concerns the target T1, human BAK, full-length, in mitochondria-enriched membrane fractions of bak−/−bax−/− MEFs (Homo sapiens, UniProt Q16611).
T1 construct: BAK, human, full-length; also called hBAK; source: stably expressed in SV40-immortalized bak−/−bax−/− MEFs; permeabilized cells or membrane fractions, solubilized in 1% digitonin for IP and BN-PAGE
Description: immunoprecipitation; membrane fractions of MEFs expressing hBAK, no cBID, solubilized in 1% digitonin, pre-cleared; Protein G Sepharose with 4 μg antibody, 4 °C, 1-2 h; blot for BAK. Conditions: one partner purified.

In experiment [2] the target is T2, BAK, endogenous, in human leukaemia cell lines (Homo sapiens, UniProt Q16611).
T2 construct: BAK, endogenous in blood cancer cell lines established from patients with ALL or AML; the methods list RS4;11, MOLM-13, KG-1, HL-60, OCI-AML3, MV4;11 and THP-1; source: endogenous, membrane fractions of human ALL and AML cell lines, solubilized in 1% digitonin
Put plainly: native gel or EMSA; untreated membrane fractions incubated with antibody on ice for 30 min, solubilized with 1% digitonin, BN-PAGE, blot for BAK (gel-shift). Conditions: one partner purified. In general terms: In EMSA bound probe runs differently from free probe, usually more slowly.

The target in experiment [3] is T3, hBAKΔN22ΔC25Δcys (Homo sapiens, Δcys (cysteine to serine; position C166 from memory, not given)).
T3 construct: BAK, human, lacking the N-terminal 22 residues and the C-terminal 25 residues (transmembrane anchor); wild-type cysteine residues replaced with serine; also called BAKΔTM; source: E. coli BL21 (DE3), purified (glutathione resin, HRV-3C cleavage, SEC Superdex S75)
T3 chain: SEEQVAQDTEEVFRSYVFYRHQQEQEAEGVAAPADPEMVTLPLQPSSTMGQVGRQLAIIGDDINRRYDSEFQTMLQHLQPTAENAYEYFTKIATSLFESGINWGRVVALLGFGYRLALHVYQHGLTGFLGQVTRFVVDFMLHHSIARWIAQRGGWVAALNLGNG
Description: SPR; 14G6 (about 150 RU) captured on a Protein A chip; BAK injected in a threefold dilution series (0.45-1000 nM), single-cycle kinetics; 25 °C, DPBS + 0.005% Tween-20; 1:1 binding model; mean ± SD of three experiments. Conditions: both partners purified. In general terms: Surface plasmon resonance follows binding to a sensor surface in real time, without labels.

For the next experiment, the target named is T4, mBAKΔN20ΔC25Δcys (Mus musculus, stabilised).
T4 construct: BAK, mouse, lacking the N-terminal 20 and the C-terminal 25 residues; wild-type cysteine residues replaced with serine; also called mouse BAK; source: E. coli BL21 (DE3), purified (glutathione resin, HRV-3C cleavage, SEC Superdex S75)
T4 chain: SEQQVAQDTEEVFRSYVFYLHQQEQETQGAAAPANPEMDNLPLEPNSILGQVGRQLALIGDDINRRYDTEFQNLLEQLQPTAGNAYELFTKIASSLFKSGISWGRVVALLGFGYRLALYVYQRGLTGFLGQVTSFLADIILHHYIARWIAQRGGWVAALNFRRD
The description is as above. Conditions: both partners purified.

In a further experiment the target is T5, hBAKΔN22ΔC25Δcys M60W (Homo sapiens, M60W | Δcys (cysteine to serine; position C166 from memory, not given)).
T5 construct: BAK, human, ΔN22ΔC25, wild-type cysteine residues replaced with serine, M60W; also called hBAK M60W; BAK M60W; source: E. coli BL21 (DE3), purified (glutathione resin, HRV-3C cleavage, SEC Superdex S75)
T5 chain: T3 chain with M38W
The description is as above. Conditions: both partners purified.

A further experiment deals with T6, hBAKΔN22ΔC25Δcys M60G (Homo sapiens, M60G | Δcys (cysteine to serine; position C166 from memory, not given)).
T6 construct: BAK, human, ΔN22ΔC25, wild-type cysteine residues replaced with serine, M60G; also called hBAK M60G; BAK M60G; source: E. coli BL21 (DE3), purified (glutathione resin, HRV-3C cleavage, SEC Superdex S75)
T6 chain: T3 chain with M38G
Described as above. Conditions: both partners purified.

For experiment [4], the target named is T3, hBAKΔN22ΔC25Δcys. Description: SEC; 14G6 Fab mixed with a 1.5-fold excess of BAKΔTM; Superdex 200 Increase 10/300 in TBS; complex of ca 65 kDa. Conditions: both partners purified.

T2 sequence (Q16611 whole entry): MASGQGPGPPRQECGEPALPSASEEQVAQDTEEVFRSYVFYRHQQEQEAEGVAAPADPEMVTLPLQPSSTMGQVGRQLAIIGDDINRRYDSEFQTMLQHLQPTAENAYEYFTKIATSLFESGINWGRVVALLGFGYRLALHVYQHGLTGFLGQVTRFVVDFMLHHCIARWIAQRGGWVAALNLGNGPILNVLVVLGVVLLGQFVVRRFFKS

B1: 14G6 antibody (antibody, V domains shown)
VH: EVKLVESGAELVRPGTSVKVSCKASGYAFTNYLIEWVKQRPGQGLEWIGVINPGSGGTNYNEKFKGKATLTADKSSSTAYMQLTSLTSDDSAVYFCASPSLYGSFDYWGQGTTVTVSS
VL: DIVMTQSHKFMSTSVGDRVSITCKASQDVGTAVAWYQQKPGQSPKLLIYWASTRHTGVPDRFTGSGSGTDFTLTISNVQSEDLADYFCQQYSSYRTFGGGTKLEIK
notes: mouse variable region, human constant region; The results call it a chimera with human constant regions; the immunoprecipitation methods call it '14G6 mouse monoclonal antibody'; Used as an AF488 conjugate for immunocytochemistry; also called clone 14G6; 14G6-AF488; source: mouse B cell cloning; recovered antibody variable regions expressed as chimeras containing human constant regions; copies: 2 …
Regarding B1, the binding result in experiment [1] and in experiment [2] was “binds” throughout. Moreover, the Kd (usually the concentration at which binding is half-saturated) with hBAKΔN22ΔC25Δcys [3] stood at 10 nM; with mBAKΔN20ΔC25Δcys it was 1140 nM; with hBAKΔN22ΔC25Δcys M60W, 9 nM; with hBAKΔN22ΔC25Δcys M60G it was 0.6 nM. Further, the koff (usually the rate constant with which the complex falls apart) amounted to 7e-05 s⁻¹ in the experiment with hBAKΔN22ΔC25Δcys [3], 0.00092 s⁻¹ with mBAKΔN20ΔC25Δcys, 5e-05 s⁻¹ in the experiment with hBAKΔN22ΔC25Δcys M60W and 7e-05 s⁻¹ with hBAKΔN22ΔC25Δcys M60G. For the same molecule, the kon (as a rule, the rate constant with which the complex forms) was found to be 6000 M⁻¹ s⁻¹ in the experiment with hBAKΔN22ΔC25Δcys [3], 810 M⁻¹ s⁻¹ in the experiment with mBAKΔN20ΔC25Δcys, 4900 M⁻¹ s⁻¹ in the experiment with hBAKΔN22ΔC25Δcys M60W and 110000 M⁻¹ s⁻¹ in the experiment with hBAKΔN22ΔC25Δcys M60G.

B2: 14G6 Fab (Fab, V domains shown)
VH: B1 VH
VL: B1 VL
notes: Fab part of the heavy chain of m1; as the light chain of m1; also called Fab fragment of antibody 14G6; source: papain cleavage of the full-length antibody, purified by cation exchange (Mono S)
For the molecule B2, in the experiment with hBAKΔN22ΔC25Δcys [4], the stoichiometry N – broadly, a count of units in the complex or per binding partner – was determined as 1.

The values above are taken from article PMC11164899, “A novel inhibitory BAK antibody enables assessment of non-activated BAK in cancer cells” (Cell Death and Differentiation, 2024).
